Laboratory results taken from US20070178460A1 (ECOLE POLYTECHNIQUE FEDERALE DE LAUSANNE, published 2007).

Columns and labels:
Experiment in all cases: split-Trp growth complementation in trp1 yeast EGY48
[1] = target: T1, Sec63p-^44Ctrp (Saccharomyces cerevisiae, UniProt P14906 1-663)
T1 construct: whole, on cells; Expressed in yeast EGY48 from pRS316CUP1 under the PCUP1-promoter; also called Sec63p-Ctrp; SEC63-^44Ctrp; not shown: HA tag at the C terminus of Trp1p
T1 sequence: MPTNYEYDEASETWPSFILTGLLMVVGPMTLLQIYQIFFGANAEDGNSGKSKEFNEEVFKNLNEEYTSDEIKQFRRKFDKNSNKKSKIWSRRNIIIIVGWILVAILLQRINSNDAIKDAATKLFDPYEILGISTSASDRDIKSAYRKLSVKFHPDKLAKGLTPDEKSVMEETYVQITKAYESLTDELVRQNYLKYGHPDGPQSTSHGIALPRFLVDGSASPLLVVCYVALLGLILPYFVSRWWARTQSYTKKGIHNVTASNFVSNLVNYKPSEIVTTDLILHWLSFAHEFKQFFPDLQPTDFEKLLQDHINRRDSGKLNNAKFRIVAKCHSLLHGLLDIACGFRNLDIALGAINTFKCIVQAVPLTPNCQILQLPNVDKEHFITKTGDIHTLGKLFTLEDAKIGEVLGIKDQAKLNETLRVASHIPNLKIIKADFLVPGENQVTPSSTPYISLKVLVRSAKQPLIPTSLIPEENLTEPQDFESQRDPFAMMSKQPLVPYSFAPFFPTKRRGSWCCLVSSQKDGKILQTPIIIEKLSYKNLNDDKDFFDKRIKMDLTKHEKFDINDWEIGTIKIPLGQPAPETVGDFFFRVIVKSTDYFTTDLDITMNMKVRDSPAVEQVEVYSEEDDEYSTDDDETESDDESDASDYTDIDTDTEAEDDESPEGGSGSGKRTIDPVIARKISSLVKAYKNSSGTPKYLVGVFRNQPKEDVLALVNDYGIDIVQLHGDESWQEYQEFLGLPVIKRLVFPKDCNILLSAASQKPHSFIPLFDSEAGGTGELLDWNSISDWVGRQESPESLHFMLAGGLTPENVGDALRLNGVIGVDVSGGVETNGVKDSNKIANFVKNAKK
Excerpt: (§1) To monitor the interaction between Sec62p and Sec63p, trp1 yeast strains expressing pairs of matching Nₜᵣₚ-Sec62p and Sec63p-Cₜᵣₚ fusion proteins were spotted on selective plates lacking tryptophan (FIG. 5). […] To verify that the observed complementation of tryptophan auxotrophy is a result of the interaction between the Sec62p and Sec63p moieties of the fusion proteins, we fused the C-terminal fragments of split-Trp⁴⁴ and split-Trp¹⁸⁷ to the cytoplasmic site of Ste14p (FIG. 4B). Ste14p is a membrane protein of the ER that is known to interact with neither Sec62p nor Sec63p (FIG. 4B) (cf. Wittke, S., Lewke, N., Muller, S., and Johnsson, N. (1999), Mol Biol Cell 10, 2519-2530). No growth on plates lacking tryptophan was observed when matching pairs of Sec62p and Ste14p fusion proteins were co-expressed at 23° C. or 30° C. for 10 days (FIG. 5). The cellular amount of Ste14p-⁴⁴Cₜᵣₚ is roughly 2-3 fold lower than the amount of Sec63p-⁴⁴Cₜᵣₚ as determined by western blotting (data not shown). Since this relatively small effect cannot account for the clear growth difference between the strains expressing either ⁴⁴Nₜᵣₚ-Sec62p/Sec63p-⁴⁴Cₜᵣₚ or ⁴⁴Nₜᵣₚ-Sec62p/Ste14p-⁴⁴Cₜᵣₚ, we conclude that the ⁴⁴Nₜᵣₚ-Sec62p/Sec63p-⁴⁴Cₜᵣₚ interaction signal is specific.

[2] = target: T2, Ste14p-^44Ctrp (Saccharomyces cerevisiae, UniProt P32584 1-239)
T2 construct: whole, on cells; Control fusion; Ctrp fused to the cytoplasmic site of Ste14p; also called Ste14p-Ctrp; STE14-^44Ctrp; not shown: HA tag at the C terminus of Trp1p
T2 sequence: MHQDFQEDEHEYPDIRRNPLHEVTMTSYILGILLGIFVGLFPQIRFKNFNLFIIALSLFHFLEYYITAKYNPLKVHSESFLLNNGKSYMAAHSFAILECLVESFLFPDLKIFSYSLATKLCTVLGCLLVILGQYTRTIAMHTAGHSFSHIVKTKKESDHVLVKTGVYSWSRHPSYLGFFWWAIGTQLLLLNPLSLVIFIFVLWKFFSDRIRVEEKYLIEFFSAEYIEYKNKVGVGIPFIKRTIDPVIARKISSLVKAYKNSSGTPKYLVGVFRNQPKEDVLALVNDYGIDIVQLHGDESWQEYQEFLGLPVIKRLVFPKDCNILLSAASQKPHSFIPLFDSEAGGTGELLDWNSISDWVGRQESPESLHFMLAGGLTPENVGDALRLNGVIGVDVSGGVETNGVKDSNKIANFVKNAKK
Excerpt: as §1

[3] = target: T3, ^187Ntrp-Sec62p (Saccharomyces cerevisiae, UniProt P21825 2-274)
T3 construct: whole, on cells; Expressed in yeast EGY48 from pRS315CUP1 under the PCUP1-promoter; not shown: 6x His tag at the N-terminus of Ntrp
T3 sequence: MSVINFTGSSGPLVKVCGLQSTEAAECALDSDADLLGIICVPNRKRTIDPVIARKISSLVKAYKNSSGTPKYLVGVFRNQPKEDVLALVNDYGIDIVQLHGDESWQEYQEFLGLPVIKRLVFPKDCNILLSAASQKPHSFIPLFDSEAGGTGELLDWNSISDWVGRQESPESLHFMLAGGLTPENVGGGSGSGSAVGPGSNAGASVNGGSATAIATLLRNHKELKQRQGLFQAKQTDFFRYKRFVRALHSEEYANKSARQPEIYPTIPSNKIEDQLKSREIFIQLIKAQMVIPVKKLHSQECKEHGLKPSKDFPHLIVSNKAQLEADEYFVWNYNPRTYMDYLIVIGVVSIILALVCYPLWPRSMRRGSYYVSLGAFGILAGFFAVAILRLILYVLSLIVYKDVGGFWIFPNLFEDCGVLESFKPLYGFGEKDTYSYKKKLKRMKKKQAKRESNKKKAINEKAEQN
Excerpt: as §1

| Binder | binding result [1] | binding result [2] | binding result [3] |
| --- | --- | --- | --- |
| ^44Ntrp-Sec62p (other, Saccharomyces cerevisiae, whole, on cells; Expressed in yeast EGY48 from pRS315CUP1 under the PCUP1-promoter; Ntrp at the N terminus of Sec62p; not shown: 6x His tag at the N-terminus of Ntrp) MSVINFTCSSGPLVKVCGLQSTEAAECALDSDADLLGIICVPNRGGSGSGSAVGPGSNAGASVNGGSATAIATLLRNHKELKQRQGLFQAKQTDFFRYKRFVRALHSEEYANKSARQPEIYPTIPSNKIEDQLKSREIFIQLIKAQMVIPVKKLHSQECKEHGLKPSKDFPHLIVSNKAQLEADEYFVWNYNPRTYMDYLIVIGVVSIILALVCYPLWPRSMRRGSYYVSLGAFGILAGFFAVAILRLILYVLSLIVYKDVGGFWIFPNLFEDCGVLESFKPLYGFGEKDTYSYKKKLKRMKKKQAKRESNKKKAINEKAEQN | binds | no binding |  |
| Ste14p-^187Ctrp (other, Saccharomyces cerevisiae, whole, on cells; Control fusion; Ctrp fused to the cytoplasmic site of Ste14p; also called Ste14p-Ctrp; not shown: HA tag at the C terminus of Trp1p) MHQDFQEDEHEYPDIRRNPLHEVTMTSYILGILLGIFVGLFPQIRFKNFNLFIIALSLFHFLEYYITAKYNPLKVHSESFLLNNGKSYMAAHSFAILECLVESFLFPDLKIFSYSLATKLCTVLGCLLVILGQYTRTIAMHTAGHSFSHIVKTKKESDHVLVKTGVYSWSRHPSYLGFFWWAIGTQLLLLNPLSLVIFIFVLWKFFSDRIRVEEKYLIEFFSAEYIEYKNKVGVGIPFIDALRLNGVIGVDVSGGVETNGVKDSNKIANFVKNAKK |  |  | no binding |
